Results taken from article PMC8299537 (Nature, 2021).

T1: PYD and CARD-deleted NLRP1 (NLRP1ΔΔ), molecule A of the ternary complex (human, UniProt Q9C000-1 148-1364)
T1 sequence (looked up): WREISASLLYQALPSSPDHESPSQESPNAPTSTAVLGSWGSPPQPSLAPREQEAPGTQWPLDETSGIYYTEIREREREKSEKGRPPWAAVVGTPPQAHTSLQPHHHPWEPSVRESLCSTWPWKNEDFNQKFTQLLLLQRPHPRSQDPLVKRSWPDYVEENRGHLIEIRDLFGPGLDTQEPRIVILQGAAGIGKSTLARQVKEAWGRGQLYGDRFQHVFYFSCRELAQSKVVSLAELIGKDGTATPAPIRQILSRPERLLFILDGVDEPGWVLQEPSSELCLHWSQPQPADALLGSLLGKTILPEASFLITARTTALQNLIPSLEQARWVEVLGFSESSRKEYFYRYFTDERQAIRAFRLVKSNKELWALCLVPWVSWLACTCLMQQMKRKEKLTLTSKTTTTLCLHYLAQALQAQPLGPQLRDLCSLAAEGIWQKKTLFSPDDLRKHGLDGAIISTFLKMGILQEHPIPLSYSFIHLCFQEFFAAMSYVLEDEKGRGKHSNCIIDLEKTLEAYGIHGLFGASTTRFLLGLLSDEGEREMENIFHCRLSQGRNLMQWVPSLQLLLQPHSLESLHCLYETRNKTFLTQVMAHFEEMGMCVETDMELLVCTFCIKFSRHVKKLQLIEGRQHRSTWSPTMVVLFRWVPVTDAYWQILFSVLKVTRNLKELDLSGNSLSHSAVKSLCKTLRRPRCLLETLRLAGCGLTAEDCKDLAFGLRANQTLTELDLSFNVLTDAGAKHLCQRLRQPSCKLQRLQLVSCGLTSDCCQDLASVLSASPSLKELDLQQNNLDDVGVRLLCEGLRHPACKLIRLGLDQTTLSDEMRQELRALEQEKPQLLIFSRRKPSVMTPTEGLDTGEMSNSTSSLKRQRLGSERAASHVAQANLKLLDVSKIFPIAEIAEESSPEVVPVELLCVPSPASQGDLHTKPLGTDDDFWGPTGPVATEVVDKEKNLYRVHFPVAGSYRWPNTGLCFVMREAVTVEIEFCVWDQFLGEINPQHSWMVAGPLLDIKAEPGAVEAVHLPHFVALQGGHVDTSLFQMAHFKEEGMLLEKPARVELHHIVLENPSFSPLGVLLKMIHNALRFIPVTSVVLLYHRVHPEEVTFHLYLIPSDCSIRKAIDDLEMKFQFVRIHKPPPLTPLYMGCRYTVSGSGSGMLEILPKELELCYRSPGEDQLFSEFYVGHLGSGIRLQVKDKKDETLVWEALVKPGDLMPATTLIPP


Molecular target: T1, PYD and CARD-deleted NLRP1 (NLRP1ΔΔ), …
Assay: cryo-EM structure

Row | binding result | Binder
1 | binds | NLRP1-CT derived from NLRP1ΔΔ (UPA subdomain only), molecule B of the ternary complex (domain or fragment, human, UniProt Q9C000-1 1213-1364, looked up) SPLGVLLKMIHNALRFIPVTSVVLLYHRVHPEEVTFHLYLIPSDCSIRKAIDDLEMKFQFVRIHKPPPLTPLYMGCRYTVSGSGSGMLEILPKELELCYRSPGEDQLFSEFYVGHLGSGIRLQVKDKKDETLVWEALVKPGDLMPATTLIPP
2 | binds | DPP9, short isoform (His-TEV-DPP9), co-purified with NLRP1ΔΔ (enzyme, human) MATTGTPTADRGDAAATDDPAARFQVQKHSWDGLRSIIHGSRKYSGLIVNKAPHDFQFVQKTDESGPHSHRLYYLGMPYGSRENSLLYSEIPKKVRKEALLLLSWKQMLDHFQATPHHGVYSREEELLRERKRLGVFGITSYDFHSESGLFLFQASNSLFHCRDGGKNGFMVSPMKPLEIKTQCSGPRMDPKICPADPAFFSFINNSDLWVANIETGEERRLTFCHQGLSNVLDDPKSAGVATFVIQEEFDRFTGYWWCPTASWEGSEGLKTLRILYEEVDESEVEVIHVPSPALEERKTDSYRYPRTGSKNPKIALKLAEFQTDSQGKIVSTQEKELVQPFSSLFPKVEYIARAGWTRDGKYAWAMFLDRPQQWLQLVLLPPALFIPSTENEEQRLASARAVPRNVQPYVVYEEVTNVWINVHDIFYPFPQSEGEDELCFLRANECKTGFCHLYKVTAVLKSQGYDWSEPFSPGEDEFKCPIKEEIALTSGEWEVLARHGSKIWVNEETKLVYFQGTKDTPLEHHLYVVSYEAAGEIVRLTTPGFSHSCSMSQNFDMFVSHYSSVSTPPCVHVYKLSGPDDDPLHKQPRFWASMMEAASCPPDYVPPEIFHFHTRSDVRLYGMIYKPHALQPGKKHPTVLFVYGGPQVQLVNNSFKGIKYLRLNTLASLGYAVVVIDGRGSCQRGLRFEGALKNQMGQVEIEDQVEGLQFVAEKYGFIDLSRVAIHGWSYGGFLSLMGLIHKPQVFKVAIAGAPVTVWMAYDTGYTERYMDVPENNQHGYEAGSVALHVEKLPNEPNRLLILHGFLDENVHFFHTNFLVSQLIRAGKPYQLQIYPNERHSIRCPESGEHYEVTLLHFLQEYL
